# Assay results from PMC5986005, “Catalysis of transthiolacylation in the active centers of dihydrolipoamide acyltransacetylase components of 2‐oxo acid dehydrogenase complexes” (FEBS Open Bio, 2018).
# How the values were obtained:
# [1] = biological target: T1, E1o (with LDo as acyl acceptor) (Escherichia coli, UniProt P0AFG3); test: reductive acylation of LDo, ESI FT-MS; assay type: biochemical
# T1 construct: gene sucA; E1o purified on Ni-Sepharose; acceptor is the separate E2o lipoyl domain (residues 1-105, His6-tagged, lipoylated in vitro); with Dihydrolipoyllysine-residue succinyltransferase component of 2-oxoglutarate dehydrogenase complex
# E2o = biological target: T2, E2o (Escherichia coli, UniProt P0AFG6, H376W); test: intrinsic Trp fluorescence quenching (ex […] nm); assay type: binding
# T2 construct: gene sucB; full-length E2o alone, pCA24N plasmid, expressed in E. coli, PEG precipitation and size exclusion
# [2] = biological target: T3, CDo (E2o catalytic domain) (Escherichia coli, UniProt P0AFG6); test: reverse succinyl transfer to dihydro-LDo, ESI FT-MS; assay type: biochemical; conditions: 40 μM dihydro-LDo, 0.10 mM TCEP, 0.15 mM succinyl-CoA, 35 mM NH4HCO3 pH 7.5, 30 °C
# T3 construct: gene sucB; separate dihydro-LDo (residues 1-105) as acyl acceptor
# purified protein [3] = substrate: O=C(O)CCC(=O)C(=O)O; test: purified protein; assay type: biochemical, Escherichia coli; conditions: reassembled complex with wild-type E2o; CoA, NAD+, ThDP, Mg2+; kcat of overall reaction
# purified protein [4] = substrate: CC(C)(COP(=O)(O)OP(=O)(O)OC[C@H]1O[C@@H](n2cnc3c(N)ncnc32)[C@H](O)[C@@H]1OP(=O)(O)O)[C@@H](O)C(=O)NCCC(=O)NCCS; test: purified protein; assay type: biochemical, Escherichia coli; conditions: 2-oxoglutarate, NAD+, ThDP, Mg2+, kcat of overall reaction
# [5] = reassembled complex with wild-type E2o
Molecule,Km (purified protein [4]; reassembled complex) [µM],kcat (purified protein [4]; reassembled complex) [s⁻¹],further results
CC(=O)C(=O)O [pyruvate],,,"reductive acylation of LDo, ESI FT-MS ([1]; LDo as acyl acceptor, ThDP, Mg2+): could also be used by E1o as substrates for reductive acylation of LDo"
"CC(C)(COP(=O)(O)OP(=O)(O)OC[C@H]1O[C@@H](n2cnc3c(N)ncnc32)[C@H](O)[C@@H]1OP(=O)(O)O)[C@@H](O)C(=O)NCCC(=O)NCCS [CoA, coenzyme A]",,,Kd (E2o): 61.2 µM
"CC(C)(COP(=O)(O)OP(=O)(O)OC[C@H]1O[C@@H](n2cnc3c(N)ncnc32)[C@H](O)[C@@H]1OP(=O)(O)O)[C@@H](O)C(=O)NCCC(=O)NCCSC(=O)CCC(=O)O [succinyl-CoA, succinyl-coenzyme A]",,,"Kd (E2o): 47 µM; reverse succinyl transfer to dihydro-LDo, ESI FT-MS [2]: rate of succinyl transfer from succinyl‐CoA to the dihydro‐LDo"
"O=C(O)CCCC(=O)C(=O)O [OA, 2-oxoadipate]",,,"reductive acylation of LDo, ESI FT-MS ([1]; 100 μM LDo, 0.1 mM ThDP, 0.5 mM MgCl2, 35 mM NH4HCO3 pH 7.5, 2.5 mM OA): could also be used by E1o as substrates for reductive acylation of LDo"
"OGDHc assembled from E1o, E2o and E3 (2-oxoglutarate site on E1o) (Escherichia coli K-12) (protein, components expressed separately in E. coli (pCA24N in AG1 for E1o and E2o; E1o purified on Ni-Sepharose) and reassembled at E1o:E2o:E3 mass ratio 1:1:1; with Dihydrolipoyllysine-residue succinyltransferase component of 2-oxoglutarate dehydrogenase complex; Dihydrolipoyl dehydrogenase) MQNSALKAWLDSSYLSGANQSWIEQLYEDFLTDPDSVDANWRSTFQQLPGTGVKPDQFHSQTREYFRRLAKDASRYSSTISDPDTNVKQVKVLQLINAYRFRGHQHANLDPLGLWQQDKVADLDPSFHDLTEADFQETFNVGSFASGKETMKLGELLEALKQTYCGPIGAEYMHITSTEEKRWIQQRIESGRATFNSEEKKRFLSELTAAEGLERYLGAKFPGAKRFSLEGGDALIPMLKEMIRHAGNSGTREVVLGMAHRGRLNVLVNVLGKKPQDLFDEFAGKHKEHLGTGDVKYHMGFSSDFQTDGGLVHLALAFNPSHLEIVSPVVIGSVRARLDRLDEPSSNKVLPITIHGDAAVTGQGVVQETLNMSKARGYEVGGTVRIVINNQVGFTTSNPLDARSTPYCTDIGKMVQAPIFHVNADDPEAVAFVTRLALDFRNTFKRDVFIDLVCYRRHGHNEADEPSATQPLMYQKIKKHPTPRKIYADKLEQEKVATLEDATEMVNLYRDALDAGDCVVAEWRPMNMHSFTWSPYLNHEWDEEYPNKVEMKRLQELAKRISTVPEAVEMQSRVAKIYGDRQAMAAGEKLFDWGGAENLAYATLVDEGIPVRLSGEDSGRGTFFHRHAVIHNQSNGSTYTPLQHIHNGQGAFRVWDSVLSEEAVLAFEYGYATAEPRTLTIWEAQFGDFANGAQVVIDQFISSGEQKWGRMCGLVMLLPHGYEGQGPEHSSARLERYLQLCAEQNMQVCVPSTPAQVYHMLRRQALRGMRRPLVVMSPKSLLRHPLAVSSLEELANGTFLPAIGEIDELDPKGVKRVVMCSGKVYYDLLEQRRKNNQHDVAIVRIEQLYPFPHKAMQEVLQQFAHVKDFVWCQEEPLNQGAWYCSQHHFREVIPFGASLRYAGRPASASPAVGYMSVHQKQQQDLVNDALNVE",,,Km (purified protein [3]): 50 ± 11 µM; kcat (purified protein [3]): 48.0 s⁻¹; kcat/Km (purified protein [3]): 1.07e+06 M⁻¹ s⁻¹
"OGDHc assembled from E1o, E2o and E3 (CoA site on E2o) (Escherichia coli K-12; H376W) (protein, components expressed separately in E. coli (pCA24N in AG1 for E1o and E2o) and reassembled at E1o:E2o:E3 mass ratio 1:1:1; with 2-oxoglutarate dehydrogenase E1 component; Dihydrolipoyl dehydrogenase) SSVDILVPDLPESVADATVATWHKKPGDAVVRDEVLVEIETDKVVLEVPASADGILDAVLEDEGTTVTSRQILGRLREGNSAGKETSAKSEEKASTPAQRQQASLEEQNNDALSPAIRRLLAEHNLDASAIKGTGVGGRLTREDVEKHLAKAPAKESAPAAAAPAAQPALAARSEKRVPMTRLRKRVAERLLEAKNSTAMLTTFNEVNMKPIMDLRKQYGEAFEKRHGIRLGFMSFYVKAVVEALKRYPEVNASIDGDDVVYHNYFDVSMAVSTPRGLVTPVLRDVDTLGMADIEKKIKELAVKGRDGKLTVEDLTGGNFTITNGGVFGSLMSTPIINPPQSAILGMHAIKDRPMAVNGQVEILPMMYLALSYDWRLIDGRESVGFLVTIKELLEDPTRLLLDV",13.3,28.8,
"OGDHc assembled from E1o, E2o and E3 (CoA site on E2o) (Escherichia coli K-12; D380A) (protein, components expressed separately in E. coli (pCA24N in AG1 for E1o and E2o) and reassembled at E1o:E2o:E3 mass ratio 1:1:1; with 2-oxoglutarate dehydrogenase E1 component; Dihydrolipoyl dehydrogenase) SSVDILVPDLPESVADATVATWHKKPGDAVVRDEVLVEIETDKVVLEVPASADGILDAVLEDEGTTVTSRQILGRLREGNSAGKETSAKSEEKASTPAQRQQASLEEQNNDALSPAIRRLLAEHNLDASAIKGTGVGGRLTREDVEKHLAKAPAKESAPAAAAPAAQPALAARSEKRVPMTRLRKRVAERLLEAKNSTAMLTTFNEVNMKPIMDLRKQYGEAFEKRHGIRLGFMSFYVKAVVEALKRYPEVNASIDGDDVVYHNYFDVSMAVSTPRGLVTPVLRDVDTLGMADIEKKIKELAVKGRDGKLTVEDLTGGNFTITNGGVFGSLMSTPIINPPQSAILGMHAIKDRPMAVNGQVEILPMMYLALSYDHRLIAGRESVGFLVTIKELLEDPTRLLLDV",21.1,4.6,
"OGDHc assembled from E1o, E2o and E3 (CoA site on E2o) (Escherichia coli K-12; T324A) (protein, components expressed separately in E. coli (pCA24N in AG1 for E1o and E2o) and reassembled at E1o:E2o:E3 mass ratio 1:1:1; with 2-oxoglutarate dehydrogenase E1 component; Dihydrolipoyl dehydrogenase) SSVDILVPDLPESVADATVATWHKKPGDAVVRDEVLVEIETDKVVLEVPASADGILDAVLEDEGTTVTSRQILGRLREGNSAGKETSAKSEEKASTPAQRQQASLEEQNNDALSPAIRRLLAEHNLDASAIKGTGVGGRLTREDVEKHLAKAPAKESAPAAAAPAAQPALAARSEKRVPMTRLRKRVAERLLEAKNSTAMLTTFNEVNMKPIMDLRKQYGEAFEKRHGIRLGFMSFYVKAVVEALKRYPEVNASIDGDDVVYHNYFDVSMAVSTPRGLVTPVLRDVDTLGMADIEKKIKELAVKGRDGKLTVEDLTGGNFTIANGGVFGSLMSTPIINPPQSAILGMHAIKDRPMAVNGQVEILPMMYLALSYDHRLIDGRESVGFLVTIKELLEDPTRLLLDV",23.3,21.7,
"OGDHc assembled from E1o, E2o and E3 (CoA site on E2o) (Escherichia coli K-12; H376G) (protein, components expressed separately in E. coli (pCA24N in AG1 for E1o and E2o) and reassembled at E1o:E2o:E3 mass ratio 1:1:1; with 2-oxoglutarate dehydrogenase E1 component; Dihydrolipoyl dehydrogenase) SSVDILVPDLPESVADATVATWHKKPGDAVVRDEVLVEIETDKVVLEVPASADGILDAVLEDEGTTVTSRQILGRLREGNSAGKETSAKSEEKASTPAQRQQASLEEQNNDALSPAIRRLLAEHNLDASAIKGTGVGGRLTREDVEKHLAKAPAKESAPAAAAPAAQPALAARSEKRVPMTRLRKRVAERLLEAKNSTAMLTTFNEVNMKPIMDLRKQYGEAFEKRHGIRLGFMSFYVKAVVEALKRYPEVNASIDGDDVVYHNYFDVSMAVSTPRGLVTPVLRDVDTLGMADIEKKIKELAVKGRDGKLTVEDLTGGNFTITNGGVFGSLMSTPIINPPQSAILGMHAIKDRPMAVNGQVEILPMMYLALSYDGRLIDGRESVGFLVTIKELLEDPTRLLLDV",20.6,5.76,
"OGDHc assembled from E1o, E2o and E3 (CoA site on E2o) (Escherichia coli K-12; R377A) (protein, components expressed separately in E. coli (pCA24N in AG1 for E1o and E2o) and reassembled at E1o:E2o:E3 mass ratio 1:1:1; with 2-oxoglutarate dehydrogenase E1 component; Dihydrolipoyl dehydrogenase) SSVDILVPDLPESVADATVATWHKKPGDAVVRDEVLVEIETDKVVLEVPASADGILDAVLEDEGTTVTSRQILGRLREGNSAGKETSAKSEEKASTPAQRQQASLEEQNNDALSPAIRRLLAEHNLDASAIKGTGVGGRLTREDVEKHLAKAPAKESAPAAAAPAAQPALAARSEKRVPMTRLRKRVAERLLEAKNSTAMLTTFNEVNMKPIMDLRKQYGEAFEKRHGIRLGFMSFYVKAVVEALKRYPEVNASIDGDDVVYHNYFDVSMAVSTPRGLVTPVLRDVDTLGMADIEKKIKELAVKGRDGKLTVEDLTGGNFTITNGGVFGSLMSTPIINPPQSAILGMHAIKDRPMAVNGQVEILPMMYLALSYDHALIDGRESVGFLVTIKELLEDPTRLLLDV",19.8,27.0,
"OGDHc assembled from E1o, E2o and E3 (CoA site on E2o) (Escherichia coli K-12) (protein, components expressed separately in E. coli (pCA24N in AG1 for E1o and E2o) and reassembled at E1o:E2o:E3 mass ratio 1:1:1; with 2-oxoglutarate dehydrogenase E1 component; Dihydrolipoyl dehydrogenase) SSVDILVPDLPESVADATVATWHKKPGDAVVRDEVLVEIETDKVVLEVPASADGILDAVLEDEGTTVTSRQILGRLREGNSAGKETSAKSEEKASTPAQRQQASLEEQNNDALSPAIRRLLAEHNLDASAIKGTGVGGRLTREDVEKHLAKAPAKESAPAAAAPAAQPALAARSEKRVPMTRLRKRVAERLLEAKNSTAMLTTFNEVNMKPIMDLRKQYGEAFEKRHGIRLGFMSFYVKAVVEALKRYPEVNASIDGDDVVYHNYFDVSMAVSTPRGLVTPVLRDVDTLGMADIEKKIKELAVKGRDGKLTVEDLTGGNFTITNGGVFGSLMSTPIINPPQSAILGMHAIKDRPMAVNGQVEILPMMYLALSYDHRLIDGRESVGFLVTIKELLEDPTRLLLDV",,,Km (purified protein [4]; [5]): 20.4 µM; kcat (purified protein [4]; [5]): 48.0 s⁻¹
